Eight molecules from patent US20240002495A1 (MITSUBISHI TANABE PHARMA, published 2024) can be followed below.

In test [1] the target is T1, 6His-AviTag-linked cynomolgus monkey IL-33 (residues 112 to 269) (cynomolgus monkey, UniProt O95760 112-269 (human entry), biotin on the AviTag portion (BirA) in the SPR of Example 7; used without biotinylation in Example 10).
T1 construct: GenBank EHH57404 printed; also called cynomolgus monkey IL-33 protein; mature cynomolgus monkey IL-33
T1 chain: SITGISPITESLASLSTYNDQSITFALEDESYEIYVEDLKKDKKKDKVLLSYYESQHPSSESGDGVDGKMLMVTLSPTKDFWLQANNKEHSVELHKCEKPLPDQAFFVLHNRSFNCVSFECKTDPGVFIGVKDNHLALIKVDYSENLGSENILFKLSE
Put plainly: SPR, IL-33 on chip, Fab supernatant as analyte. The protocol:
(§1) The library after the enrichment was used to construct a library of Escherichia coli secreting and expressing Fab. The culture supernatants of several hundreds of clones of Escherichia coli were subjected to measurement of dissociation rate constant (koff) by surface plasmon resonance (SPR) (ProteOn XPR36, available from Bio-Rad Laboratories, Inc.). The biotinylated human IL-33 protein (4 μg/mL) and cynomolgus monkey IL-33 protein (4 μg/mL) were loaded as ligands on a sensor chip (NLC sensor chip, available from Bio-Rad Laboratories, Inc.), to immobilize the human IL-33 protein at an amount equivalent to 1300 to 1600 RU, and the cynomolgus monkeyIL-33 protein at an amount equivalent to 1100 to 1500 RU. The culture supernatant of Escherichia coli was then loaded thereon as analyte to obtain a sensorgram with association phase of one minute and dissociation phase of 10 to 30 minutes. The sensorgram was subjected to interspot correction and blank correction using an SPR data analysis program (ProteOn Manager v3.1.0, available from Bio-Rad Laboratories, Inc.), and then values of koff were determined by off-rate analysis of Langmuir model.

In test [2] the target is T2, biotinylated 6His tag-AviTag-linked mature human IL-33 (residues 112 to 270) (human, UniProt O95760 112-270, biotin on the AviTag portion (BirA)).
T2 construct: made in E. coli; also called biotinylated human IL-33 protein
T2 sequence: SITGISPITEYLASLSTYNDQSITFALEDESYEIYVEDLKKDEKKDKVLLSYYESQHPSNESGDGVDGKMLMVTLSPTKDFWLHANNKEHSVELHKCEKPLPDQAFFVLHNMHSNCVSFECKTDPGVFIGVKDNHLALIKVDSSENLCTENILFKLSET
As to the kind of experiment: SPR, IL-33 on chip, Fab supernatant as analyte. The protocol:
as §1

B1: A27-1A06 (Fab) (Fab, V domains shown)
VH: EVQLLESGGGLVQPGGSLRLSCAASGFTFSNYYMHWVRQAPGKGLEWVSSISARSSYRYYADSVKGRFTISRDNSKNTLYLQMNSLRAEDTAVYYCARLATRHLAFDIWGQGTLVTVSS
VL: QSVLTQPPSASGTPGQRVTISCSGSSSNIGNNAVNWYQQLPGTAPKLLIYASNMRRPGVPDRFSGSKSGTSASLAISGLRSEDEADYYCAAWDDSQKVFVFGGGTKLTVL
notes: Fab secreted by E. coli, tested as culture supernatant; also called V21
B1: in test [1], the “Cynomolgus Monkey IL-33 Binding Amount (RU)” value came to 320 RU and the koff is 1e-05 s⁻¹. In test [2], the “Human IL-33 Binding Amount (RU)” value turned out to be 306 RU and the koff amounted to 1e-05 s⁻¹.

B2: A28-2H06 (Fab) (Fab, V domains shown)
VH: EVQLLESGGGLVQPGGSLRLSCAASGFTFSNYYMHWVRQAPGKGLEWVSSISALSSYRYYADSVKGRFTISRDNSKNTLYLQMNSLRAEDTAVYYCARLATRRVAFDIWGQGTLVTVSS
VL: QSVLTQPPSASGTPGQRVTISCSGSSSNIGNNAVNWYQQLPGTAPKLLIYASNMRRLGVPDRFSGSKSGTSASLAISGLRSEDEADYYCAAWDDSQKALVFGGGTKLTVL
notes: Fab secreted by E. coli, tested as culture supernatant; also called V28
In the case of B2, in test [1], the “Cynomolgus Monkey IL-33 Binding Amount (RU)” value turned out to be 317 RU and the koff came to 1e-05 s⁻¹. Besides, in test [2], the “Human IL-33 Binding Amount (RU)” value amounted to 349 RU and the off-rate constant (koff) came out at 1e-05 s⁻¹.

B3: A28-2F01 (Fab) (Fab, V domains shown)
VH: EVQLLESGGGLVQPGGSLRLSCAASGFTFSNYYMHWVRQAPGKGLEWVSSISSRSSHQYYAGSVKGRFTISRDNSKNTLYLQMNSLRAEDTAVYYCARLGLRHDAFDIWGQGTLVTVSS
VL: QSVLTQPPSASGTPGQRVTISCSGSSSNIGHNAVWWYQQLPGTAPKLLIYASNMRRMGVPDRFSGSKSGTSASLAISGLRSEDEADYYCAAWDDSQKAVVFGGGTKLTVL
notes: Fab secreted by E. coli, tested as culture supernatant; also called V26
As to B3, in test [1], the “Cynomolgus Monkey IL-33 Binding Amount (RU)” value came to 258 RU and the koff was 1e-05 s⁻¹. Also, in test [2], the “Human IL-33 Binding Amount (RU)” value was 289 RU and the koff is 1e-05 s⁻¹.

B4: A28-1G07 (Fab) (Fab, V domains shown)
VH: EVQLLESGGGLVQPGGSLRLSCAASGFTFSNYYMHWVRQAPGKGLEWVSSISARSSYRYYADSVKGRFTISRDNSKNTLYLQMNSLRAEDTAVYYCARLATRHSAFDIWGQGTLVTVSS
VL: QSVLTQPPSASGTPGQRVTISCSGSSSNIGHNAVSWYQQLPGTAPKLLIYASNMRRLGVPDRFSGSKSGTSASLAISGLRSEDEADYYCGAWDDSQKVVVFGGGTKLTVL
notes: Fab secreted by E. coli, tested as culture supernatant; also called V24
As for B4, in test [1], the “Cynomolgus Monkey IL-33 Binding Amount (RU)” value was 173 RU and the koff came to 1.05e-05 s⁻¹. Further, in test [2], the “Human IL-33 Binding Amount (RU)” value was 165 RU and the koff was 1e-05 s⁻¹.

B5: A28-1C08 (Fab) (Fab, V domains shown)
VH: EVQLLESGGGLVQPGGSLRLSCAASGFTFSRYYMHWVRQAPGKGLEWVSSISARSSYIYYADSVKGRFTISRDNSKNTLYLQMNSLRAEDTAVYYCARLATRRDAFDIWGQGTLVTVSS
VL: QSVLTQPPSASGTPGQRVTISCSGSSSNIGRNAVSWYQQLPGTAPKLLIYASNMRRLGVPDRFSGSKSGTSASLAISGLRSEDEADYYCWAWDDSQKAVVFGGGTKLTVL
notes: Fab secreted by E. coli, tested as culture supernatant; also called V23
In the case of B5, in test [1], the “Cynomolgus Monkey IL-33 Binding Amount (RU)” value was found to be 144 RU and the koff is 1e-05 s⁻¹. In test [2], the “Human IL-33 Binding Amount (RU)” value was determined as 156 RU and the koff was 1e-05 s⁻¹.

B6: A28-2G07 (Fab) (Fab, V domains shown)
VH: EVQLLESGGGLVQPGGSLRLSCAASGFTFSSYYMHWVRQAPGKGLEWVSSISARSSYIYYADSVKGRFTISRDNSKNTLYLQMNSLRAEDTAVYYCARLATRRIAFDIWGQGTLVTVSS
VL: QSVLTQPPSASGTPGQRVTISCSGSSSNIGRNAVNWYQQLPGTAPKLLIYASNMRRPGVPDRFSGSKSGTSASLAISGLRSEDEADYYCSAWDDSQKAGVFGGGTKLTVL
notes: Fab secreted by E. coli, tested as culture supernatant; also called V27
Consider B6, for which, in test [1], the “Cynomolgus Monkey IL-33 Binding Amount (RU)” value came out at 259 RU and the koff came to 1.14e-05 s⁻¹. For the same molecule, in test [2], the “Human IL-33 Binding Amount (RU)” value came to 289 RU and the koff was determined as 1e-05 s⁻¹.

B7: A27-1C06 (Fab) (Fab, V domains shown)
VH: EVQLLESGGGLVQPGGSLRLSCAASGFTFSNYYMHWVRQAPGKGLEWVSSISARSSYIYYADSVKGRFTISRDNSKNTLYLQMNSLRAEDTAVYYCARLATRHSAFDIWGQGTLVTVSS
VL: QSVLTQPPSASGTPGQRVTISCSGSSSNIGNNAVNWYQQLPGTAPKLLIYASNMRRLGVPDRFSGSKSGTSASLAISGLRSEDEADYYCGAWDDSQKAFVFGGGTKLTVL
notes: Fab secreted by E. coli, tested as culture supernatant; also called V22
On to B7, for which, in test [1], the “Cynomolgus Monkey IL-33 Binding Amount (RU)” value came out at 304 RU and the koff turned out to be 1.14e-05 s⁻¹. Further, in test [2], the “Human IL-33 Binding Amount (RU)” value is 294 RU and the koff was determined as 1e-05 s⁻¹.

B8: A28-2C06 (Fab) (Fab, V domains shown)
VH: EVQLLESGGGLVQPGGSLRLSCAASGFTFSNYYMHWVRQAPGKGLEWVSSISARSSYIYYAGSVKGRFTISRDNSKNTLYLQMNSLRAEDTAVYYCARLGTRRVAFDIWGQGTLVTVSS
VL: QSVLTQPPSASGTPGQRVTISCSGSSSNIGRNAVNWYQQLPGTAPKLLIYASNMRGMGVPDRFSGSKSGTSASLAISGLRSEDEADYYCSAWDDSQKVVVFGGGTKLTVL
notes: Fab secreted by E. coli, tested as culture supernatant; also called V25
For the molecule B8, in test [1], the “Cynomolgus Monkey IL-33 Binding Amount (RU)” value amounted to 134 RU and the koff was 1e-05 s⁻¹. Besides, in test [2], the “Human IL-33 Binding Amount (RU)” value came to 123 RU and the koff came out at 1e-05 s⁻¹.
